This note sets out measurements from paper doi:10.1101/393223, “Structures of the substrate-engaged 26S proteasome reveal the mechanisms for ATP hydrolysis-driven translocation” (bioRxiv, 2018).

The target of this experiment is T1, Rpn11 (3XFLAG-tagged, in the 26S proteasome) (S. cerevisiae, UniProt P43588 1-306).
T1 construct: Rpn11, Zn2+-dependent deubiquitinase of the lid, S. cerevisiae; strain YYS40 RPN11::RPN11-3XFLAG; the catalytic Zn2+ is not visible in the structure; also called Rpn11 deubiquitinase; source: purified from S. cerevisiae strain YYS40 as part of the 26S proteasome (anti-FLAG, SEC)
Briefly: cryo-EM structure; 26S proteasome (20 μM; 20 mM HEPES pH 7.6, 25 mM NaCl, 25 mM KCl, 10 mM MgCl2, 1 mM TCEP, 5 mM ATP, 0.05% NP-40, ATP regeneration system, 6 mM ortho-phenanthroline) mixed with an equal volume of 50 μM ubiquitinated model substrate and vitrified at once; single-particle analysis gave four substrate-engaged states (1D*, 5D, 5T, 4D). As to conditions: both partners purified.

B1: ubiquitin (S. cerevisiae), the most proximal, substrate-attached moiety of the poly-ubiquitin chain (natural protein)
chain: not shown
modifications: C-terminus in an isopeptide bond with the substrate lysine; part of a K63-linked ubiquitin chain
notes: ubiquitin, S. cerevisiae; cut product of the ubiquitin precursors; Modeled at the Rpn11 active site in the 4D state with PDB 5U4P as template; also called ubiquitin moiety
In the case of B1, the binding result is on record as “binds”.
